Measurements published in the supplement of paper PMC12764529.
± gives the half width of the 95% confidence interval.

Assays:
[1] = folding stability dG unfold from chymotrypsin proteolysis; higher = more stable
Summary of the method: (§1)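 Digests were run with trypsin and chymotrypsin at 11 concentrations in threefold dilutions, plus a no-protease condition, on designed mini-proteins in a PA-tagged cDNA display construct. The mini-proteins were under 80 residues, had no cysteine, and were kept only when AlphaFold2 dimer inter-PAE was above 15. After sequencing, Bayesian fitting of the counts gave K50, from which unfolding free energy was derived against a sequence-predicted unfolded-state K50 and a shared folded-state K50, per protease or combined.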

[2] = folding stability dG unfold from trypsin proteolysis; higher = more stable
Summary of the method: as §1

[3] = folding stability dG unfold (combined trypsin and chymotrypsin); higher = more stable
Summary of the method: as §1

SEKLTVTLTLTVVTTETRVTYDKETGELTVETRTEVRTLTLTVTADSEEEAKRAVQELLDALEKNPELLSSA [r9_77_TrROS_Hall]
folding stability dG unfold [1]: 4.94 ± 0.13 kcal/mol
folding stability dG unfold [2]: 3.8 ± 0.14 kcal/mol
folding stability dG unfold [3]: 4.66 ± 0.15 kcal/mol

SAGGSAGGSAGGNWYIIIYFPPGRKRIIPFDSPEEMREEMKENGMPIKIMPKEDAEKLLSAGGSAGGSAGGS [r10_66_TrROS]
folding stability dG unfold [1]: 1.25 ± 0.052 kcal/mol
folding stability dG unfold [2]: 0.848 ± 0.078 kcal/mol
folding stability dG unfold [3]: 1.14 ± 0.084 kcal/mol

SAGGSAGMPDIIYKVKITVTSSGKVTTLDITLPSEEEVKKAIEELKKKGYTNIKPEIEKFLKSELGSAGGSA [r15_1015_JUSTAS]
folding stability dG unfold [1]: 2.13 ± 0.066 kcal/mol
folding stability dG unfold [2]: 1.15 ± 0.12 kcal/mol
folding stability dG unfold [3]: 2 ± 0.19 kcal/mol

SAGGSAGGSSVTLTFTGGNSEVTVELDAGGEGGFLARVTVVTESDGKLETVEADFYLGSLPGLSAGGSAGGS [r12_769_TrMRF]
folding stability dG unfold [1]: 3.77 ± 0.065 kcal/mol
folding stability dG unfold [2]: 2.75 ± 0.13 kcal/mol
folding stability dG unfold [3]: 3.29 ± 0.13 kcal/mol

KMKTITITVKVPKGMKVVITLANGKKIEIEVESVEDALKKIKKLLPEGAVLRVEVVKDGKVIEEKEIVIKPS [r1_276_TrROS_Hall]
folding stability dG unfold [1]: 2.96 ± 0.041 kcal/mol
folding stability dG unfold [2]: 2.18 ± 0.071 kcal/mol
folding stability dG unfold [3]: 2.66 ± 0.15 kcal/mol

SAGPTVTVELEIRLPPELRGLSPEELAELLARELEEAGYTVEVVEVEEEDGYVTVRVRVTVPLPPPPPESAG [r5_80_TrROS_Hall]
folding stability dG unfold [1]: 3.29 ± 0.13 kcal/mol
folding stability dG unfold [2]: 3.59 ± 0.11 kcal/mol
folding stability dG unfold [3]: 3.52 ± 0.13 kcal/mol

SGMLAPDATVTTTEIVFEKDPKTGLYYLTVKEKTVTVKPDSSGRLVLTTSPVTITDLGPLTPEEAEKLLSSA [r9_423_JUSTAS]
folding stability dG unfold [1]: 2.73 ± 0.031 kcal/mol
folding stability dG unfold [2]: 2.16 ± 0.052 kcal/mol
folding stability dG unfold [3]: 2.51 ± 0.085 kcal/mol

SAGGSAGGSMTTKTFKLPDGRTVTVTTEKLPNGTTKTTVTITVPGTGKTTTVPASEVPADFSGSAGGSAGGS [r12_797_JUSTAS]
folding stability dG unfold [1]: 2.08 ± 0.025 kcal/mol
folding stability dG unfold [2]: 1.24 ± 0.038 kcal/mol
folding stability dG unfold [3]: 1.83 ± 0.068 kcal/mol

SAGGNWRIRVKIEGPDGKTVNHWFWIPNLEDLLSFIQSQPGPKIKDVEIEPPPKDKQYYIPFTMTIPPSAGG [r13_796_TrROS]
folding stability dG unfold [1]: 1.87 ± 0.11 kcal/mol
folding stability dG unfold [2]: 1.72 ± 0.031 kcal/mol
folding stability dG unfold [3]: 1.8 ± 0.11 kcal/mol

SSLTVRLELEVTFEDGLRVRVEVEAELREVDGKLELRVRVRVEVRPLPPPPPPPPPPRLSDEQLEELRKRSA [r9_965_TrROS_Hall]
folding stability dG unfold [1]: 2.34 ± 0.092 kcal/mol
folding stability dG unfold [2]: 0.786 ± 0.19 kcal/mol
folding stability dG unfold [3]: 1.9 ± 0.19 kcal/mol

SAGGSAGGSAGGSLSSNGSSLPPVPPAPVTDEPVEFPTPVLVTVSYYPLTGERRVEVLLSAGGSAGGSAGGS [r4_305_JUSTAS]
folding stability dG unfold [1]: 0.272 ± 0.07 kcal/mol
folding stability dG unfold [2]: -0.291 ± 0.038 kcal/mol
folding stability dG unfold [3]: 0.178 ± 0.068 kcal/mol

SAGGSAGGSAREPPEAELVDERERTRPDGRPYTIAILRNPRDPREYLRIPGLGEWYPLDKLSAGGSAGGSAG [r3_181_TrMRF]
folding stability dG unfold [1]: 0.431 ± 0.22 kcal/mol
folding stability dG unfold [2]: -0.574 ± 0.28 kcal/mol
folding stability dG unfold [3]: 0.126 ± 0.12 kcal/mol

SAGGSAGGSAGGVKEFDALAGGVPVKVKVYPDPDGNPRVEVIFPDGSKVTLSADEPLNLSAGGSAGGSAGGS [r10_989_TrMRF]
folding stability dG unfold [1]: 1.58 ± 0.08 kcal/mol
folding stability dG unfold [2]: 2.26 ± 0.067 kcal/mol
folding stability dG unfold [3]: 1.87 ± 0.068 kcal/mol

SAGMPYIKVKITVIHPDNKEKEAEFVFDLKDGKIDLKPEVIEKALEELGIPKDYEIKIEIVEIKEPDESAGG [r19_287_TrMRF]
folding stability dG unfold [1]: 2.82 ± 0.16 kcal/mol
folding stability dG unfold [2]: 2.5 ± 0.13 kcal/mol
folding stability dG unfold [3]: 2.81 ± 0.16 kcal/mol

SAGGSSMTVTKLPTNKTVTTRPLPSSSSVTTTTTFDPNSPVATVTTTDTSSDTSTTTTVPLGPGAFSAGGSA [r2_114_JUSTAS]
folding stability dG unfold [1]: 0.892 ± 0.06 kcal/mol
folding stability dG unfold [2]: 0.783 ± 0.035 kcal/mol
folding stability dG unfold [3]: 0.824 ± 0.11 kcal/mol

SADKVEIEFPMPESGHPFRIVIDKDGKVEIRHPNNGEEYEFKINGKPIRFPPNMSWDDAIDQLKDALKKSAG [r14_561_TrROS]
folding stability dG unfold [1]: 0.645 ± 0.2 kcal/mol
folding stability dG unfold [2]: 0.905 ± 0.075 kcal/mol
folding stability dG unfold [3]: 0.897 ± 0.19 kcal/mol

SAGGSAEEEEARRLAEELARRLEEEGYEIERVEVRVERLPDGTVRITVRVYRKDGKPVLELEITLPSAGGSA [r15_232_TrROS_Hall]
folding stability dG unfold [1]: 4.99 ± 0.18 kcal/mol
folding stability dG unfold [2]: 4.54 ± 0.19 kcal/mol
folding stability dG unfold [3]: 4.97 ± 0.11 kcal/mol

SMVKIYAAPNVPPEQREAIERLVKRILENPDIPIDPETIGKLIKEEAGNPELTIDRIEILPLVPPGVAEKSA [r9_620_TrMRF]
folding stability dG unfold [1]: 0.896 ± 0.082 kcal/mol
folding stability dG unfold [2]: 0.79 ± 0.064 kcal/mol
folding stability dG unfold [3]: 0.794 ± 0.099 kcal/mol

SAGGSAGGSAGKPIKLEEVLEKLNPEKIESVFVFPPIPYVVVLLKDSNGNKKIIVVKEDKSAGGSAGGSAGG [r17_374_TrMRF]
folding stability dG unfold [1]: 0.922 ± 0.21 kcal/mol
folding stability dG unfold [2]: 0.695 ± 0.019 kcal/mol
folding stability dG unfold [3]: 0.837 ± 0.13 kcal/mol

SAGGSAGGSAGGMTLTIPEEVLKKALEEGDEELLKEVVEKAGVKPEDTEVIAVTPEDLLESAGGSAGGSAGG [r7_7_JUSTAS]
folding stability dG unfold [1]: 0.919 ± 0.07 kcal/mol
folding stability dG unfold [2]: 0.56 ± 0.072 kcal/mol
folding stability dG unfold [3]: 0.822 ± 0.12 kcal/mol

SAGGSAGGSAGGKKKIKVKVTVYNKNGKPVAEFEFEFETEEEALEAAKKLGLPVRVEKESAGGSAGGSAGGS [r10_958_TrROS_Hall]
folding stability dG unfold [1]: 2.57 ± 0.069 kcal/mol
folding stability dG unfold [2]: 1.71 ± 0.11 kcal/mol
folding stability dG unfold [3]: 2.28 ± 0.15 kcal/mol
